Results reported in patent publication US20150344548A1 (XBIOTECH, published 2015).

Molecular target: T1, commercial wildtype SpA (Staphylococcus aureus protein A) (Staphylococcus aureus, UniProt A0A0H3K686 37-477)
T1 construct: Bought wildtype SpA; also called SpA-coated beads; antigen
Experiment: Bio-Layer Interferometry (ForteBio Octet Red 96), 20 nM antigen

T1 sequence (A0A0H3K686 37-477 limits assumed): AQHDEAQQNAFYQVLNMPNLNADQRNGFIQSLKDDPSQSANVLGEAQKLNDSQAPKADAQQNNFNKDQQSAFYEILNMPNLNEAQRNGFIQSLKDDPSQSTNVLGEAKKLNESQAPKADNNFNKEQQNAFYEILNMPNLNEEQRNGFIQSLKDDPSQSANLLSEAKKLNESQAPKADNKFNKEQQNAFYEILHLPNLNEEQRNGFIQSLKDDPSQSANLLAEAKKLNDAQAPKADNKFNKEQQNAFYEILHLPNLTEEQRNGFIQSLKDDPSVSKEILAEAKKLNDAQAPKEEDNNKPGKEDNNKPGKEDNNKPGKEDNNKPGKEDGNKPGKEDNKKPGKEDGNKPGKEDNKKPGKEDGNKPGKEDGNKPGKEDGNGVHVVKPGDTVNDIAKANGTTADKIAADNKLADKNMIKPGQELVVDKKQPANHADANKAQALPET

B1: PA7.2-G3 Ab (antibody)
heavy: EVQLVESRGGLVQPGGSLRLSCAASGFTFSNYAMSWVRQAPGKGLEWVSTISGSDGGTYYADSVKGRFTISRDNSGNTVYLQMNSLREDDTAVYYCARVGLSAPVTFFDFWGQGTLVTVSSASTKGPSVFPLAPCSRSTSGGTAALGCLVKDYFPEPVTVSWNSGALTSGVHTFPAVLQSSGLYSLSSVVTVPSSSLGTQTYTCNVNHKPSNTKVDKRVELKTPLGDTTHTCPRCPEPKSCDTPPPCPRCPEPKSCDTPPPCPRCPEPKSCDTPPPCPRCPAPELLGGPSVFLFPPKPKDTLMISRTPEVTCVVVDVSHEDPEVQFKWYVDGVEVHNAKTKPREEQYNSTFRVVSVLTVLHQDWLNGKEYKCKVSNKALPAPIEKTISKTKGQPREPQVYTLPPSREEMTKNQVSLTCLVKGFYPSDIAVEWESSGQPENNYNTTPPMLDSDGSFFLYSKLTVDKSRWQQGNIFSCSVMHEALHNRFTQKSLSLSPGK
light: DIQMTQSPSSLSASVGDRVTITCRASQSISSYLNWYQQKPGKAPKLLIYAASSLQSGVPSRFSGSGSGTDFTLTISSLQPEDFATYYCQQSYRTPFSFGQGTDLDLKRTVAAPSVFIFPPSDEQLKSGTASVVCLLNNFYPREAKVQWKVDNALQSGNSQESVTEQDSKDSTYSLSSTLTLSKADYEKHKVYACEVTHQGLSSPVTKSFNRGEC
notes: Human IgG3; copies: 2 + 2
Kd: < 1 pM
